Laboratory results: patent publication US20210284690A1

Assays:
[1] = target: extracellular part of human CD40L (aa 108-261 recombinantly produced in E. coli) (human) (UniProt P29965); assay: BLI (OctetRED96), Fab captured on anti-human Fab-CH1 (FAB2G) sensors, soluble CD40L 2.5-80 nM, 1:1 global fit; purchased
IL-1β = assay: cell-based or functional assay

Chain of extracellular part of human CD40L (aa 108-261 recombinantly produced in E. coli) (human) (P29965 108-261 limits assumed): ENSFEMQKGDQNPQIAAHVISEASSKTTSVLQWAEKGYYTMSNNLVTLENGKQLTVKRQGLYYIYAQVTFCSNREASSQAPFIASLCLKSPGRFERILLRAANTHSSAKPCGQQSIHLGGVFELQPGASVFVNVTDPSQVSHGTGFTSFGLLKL

| Substance | Kd [1] [nM] | NHDF IC50 (pM); inhibition of IL-1β induced IL-6 release from NHDF cells (IL-1β) [pM] |
| --- | --- | --- |
| Dapirolizumab Fab | < 0.3 | – |
| Met-huIL-1Ra (Anakinra) (from UniProt P18510 26-177) (ligand) | – | 70 |
| PEG(L30kDa)-Met-huIL-1Ra (from UniProt P18510 26-177) (ligand) | – | 900 |
